How the values were obtained:
Human CLEC12A-His [1] = biological target: T1, Human CLEC12A-His (human, UniProt Q5QGZ9 65-265); experiment: SPR Biacore 8K 37 C; TriNKET captured on anti-hFc chip, hCLEC12A-His as analyte; two-state fit, kd1; two-state fit; kd1
T1 construct: Recombinant soluble protein made in house (Dragonfly Tx); The hCLEC12A spot of the HuProt array is written under this molecule as well; also called hCLEC12A-His; hCLEC12A; not shown: His tag
T1 sequence: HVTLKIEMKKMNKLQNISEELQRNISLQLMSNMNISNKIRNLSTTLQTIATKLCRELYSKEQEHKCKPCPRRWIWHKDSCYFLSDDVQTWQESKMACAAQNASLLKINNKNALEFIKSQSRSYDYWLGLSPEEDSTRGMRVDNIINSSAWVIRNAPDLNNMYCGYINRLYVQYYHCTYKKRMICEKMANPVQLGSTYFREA

Human CLEC12A-His [2] = biological target: T1, Human CLEC12A-His; experiment: SPR Biacore 8K 37 C; TriNKET captured on anti-hFc chip, hCLEC12A-His as analyte; two-state fit, ka1 only; two-state fit; ka1 only
Human CLEC12A-His [3] = biological target: T1, Human CLEC12A-His; experiment: SPR Biacore 8K 37 C; TriNKET captured on anti-hFc chip, hCLEC12A-His as analyte; two-state fit, kd2
Human CLEC12A-His [4] = biological target: T1, Human CLEC12A-His; experiment: cell-based or functional assay
Human CLEC12A-His [5] = biological target: T1, Human CLEC12A-His; experiment: SPR Biacore 8K 37 C; TriNKET captured on anti-hFc chip, hCLEC12A-His as analyte; two-state fit; two-state fit

- koff (Human CLEC12A-His [1]): 0.0157 s⁻¹
- kon (Human CLEC12A-His [2]): 1.63e+06 M⁻¹ s⁻¹
- koff (Human CLEC12A-His [3]): 0.000949 s⁻¹
- Kd (Human CLEC12A-His [5]): 2.41 nM
B1: AB0053 (bispecific antibody)
chain 1: QLQLQESGPGLVKPSETLSLTCTVSGFSLTNYGLHWIRQPPGKCLEWIGVIWSGGKTDYNPSLKSRVTISKDTSKNQFSLKLSSVQAADTAVYYCAKYDYDDALDYWGQGTLVTVSSGGGGSGGGGSGGGGSGGGGSDIQMTQSPSSLSASVGDRVTITCHASQNINFWLSWYQQKPGKAPKLLIYEASNLHTGVPSRFSGSGSGTRFTLTISSLQPEDIATYYCQQSHSYPLTFGCGTKLEIKGSDKTHTCPPCPAPELLGGPSVFLFPPKPKDTLMISRTPEVTCVVVDVSHEDPEVKFNWYVDGVEVHNAKTKPREEQYNSTYRVVSVLTVLHQDWLNGKEYKCKVSNKALPAPIEKTISKAKGQPREPRVYTLPPCRDELTKNQVSLTCLVKGFYPSDIAVEWESNGQPENNYKTTPPVLVSDGSFTLYSKLTVDKSRWQQGNVFSCSVMHEALHNHYTQKSLSLSPG
chain 2: EVQLVESGGGLVKPGGSLRLSCAASGFTFSSYSMNWVRQAPGKGLEWVSSISSSSSYIYYADSVKGRFTISRDNAKNSLYLQMNSLRAEDTAVYYCARGAPIGAAAGWFDPWGQGTLVTVSSASTKGPSVFPLAPSSKSTSGGTAALGCLVKDYFPEPVTVSWNSGALTSGVHTFPAVLQSSGLYSLSSVVTVPSSSLGTQTYICNVNHKPSNTKVDKKVEPKSCDKTHTCPPCPAPELLGGPSVFLFPPKPKDTLMISRTPEVTCVVVDVSHEDPEVKFNWYVDGVEVHNAKTKPREEQYNSTYRVVSVLTVLHQDWLNGKEYKCKVSNKALPAPIEKTISKAKGQPREPQVCTLPPSRDELTENQVSLTCLVKGFYPSDIAVEWESNGQPENNYKTTPPVLDSDGSFFLYSWLTVDKSRWQQGNVFSCSVMHEALHNHYTQKSLSLSPG
chain 3: DIQMTQSPSSVSASVGDRVTITCRASQGISSWLAWYQQKPGKAPKLLIYAASSLQSGVPSRFSGSGSGTDFTLTISSLQPEDFATYYCQQGVSFPRTFGGGTKVEIKRTVAAPSVFIFPPSDEQLKSGTASVVCLLNNFYPREAKVQWKVDNALQSGNSQESVTEQDSKDSTYSLSSTLTLSKADYEKHKVYACEVTHQGLSSPVTKSFNRGEC
- EC50 (nM), KHYG-1-CD16aV cytotoxicity assay, PL-21 cells (Human CLEC12A-His [4]): 0.39 nM

Reference: patent publication US20220119534A1 (DRAGONFLY THERAPEUTICS, published 2022)
